For data set [1], the target named is super-unplugged XPD variant (Chaetomium thermophilum).
A further data set concerns the target T1, XPD wild type (ctXPD) (Chaetomium thermophilum (paper: C. …, UniProt G0RZH0 1-780)).
T1 sequence: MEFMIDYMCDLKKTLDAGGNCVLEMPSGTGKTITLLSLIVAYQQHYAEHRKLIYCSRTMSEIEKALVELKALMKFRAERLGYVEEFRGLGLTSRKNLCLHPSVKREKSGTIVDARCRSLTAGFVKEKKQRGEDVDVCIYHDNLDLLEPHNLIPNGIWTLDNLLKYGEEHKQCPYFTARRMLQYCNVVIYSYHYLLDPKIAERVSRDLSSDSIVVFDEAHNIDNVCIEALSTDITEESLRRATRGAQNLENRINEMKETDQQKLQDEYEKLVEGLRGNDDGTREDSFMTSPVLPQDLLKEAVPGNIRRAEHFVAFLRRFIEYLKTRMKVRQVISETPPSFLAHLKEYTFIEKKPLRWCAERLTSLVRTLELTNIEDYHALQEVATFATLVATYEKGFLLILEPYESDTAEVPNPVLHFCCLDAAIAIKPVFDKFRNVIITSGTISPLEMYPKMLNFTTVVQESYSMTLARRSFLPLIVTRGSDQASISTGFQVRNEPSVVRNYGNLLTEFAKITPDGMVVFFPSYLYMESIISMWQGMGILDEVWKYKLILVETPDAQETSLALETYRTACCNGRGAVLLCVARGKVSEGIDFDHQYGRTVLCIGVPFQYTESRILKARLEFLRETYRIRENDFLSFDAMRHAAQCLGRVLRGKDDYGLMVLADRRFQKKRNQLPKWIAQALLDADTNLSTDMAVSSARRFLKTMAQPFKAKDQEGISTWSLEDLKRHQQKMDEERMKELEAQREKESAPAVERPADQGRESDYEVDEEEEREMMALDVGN
The data set can be described thus: fluorescence anisotropy; 5 mM MgCl2, no nucleotide; Fluorescence anisotropy: 20 mM HEPES pH 7.5, 50 mM KCl, 5 mM MgCl2, 1 mM TCEP, 5 nM DNA, room temperature; cryo-EM: same buffer, 10 uM complex, DNA 1.25:1, 5 mM ATP. Conditions: protein: recombinant; tags: N-terminal 6xHis, TEV site (pBADM-11); label: 5' Cy3; hairpin with 5' overhang.

In general, Kd refers to the concentration at which binding is half-saturated.

In data set [1], “XPG D924A from Chaetomium thermophilum (enzyme)” returned an XPD helicase activity (fluorescence-based, Y-forked DNA 250 nM, XPD–p44 250 nM) with equimolar XPG D924A (250 nM); inhibition by XPG D924A of 6 fold.

In the case of TTTTTTTTTTTTTTTCCCGGCCATGCGAAGCATGGCCGTT (structured_DNA) [5' overhang self-annealing hairpin], the Kd in the data set with XPD wild type (ctXPD) was determined as 30 nM.

Values taken from publication PMC11479942, “XPD stalled on cross-linked DNA provides insight into damage verification”.
